From US20230041134A1 (Genentech, published 2023)

Legend:
[1] = biological target: T1, Her2 extracellular domain (Her2 ECD) (human, UniProt P04626 23-652); test: SPR (BIAcore T100), IgG, 1:1 Langmuir fit
T1 construct: For the crystal structure it was expressed in CHO cells and the complex was enzymatically deglycosylated; also called biotinylated Her2 ECD
Method: (§1) The affinity of each 7C2 IgG variant for Her2 was determined by surface plasmon resonance using a BIAcoreT100. Biacore Series S CMS sensor chips were immobilized with monoclonal mouse anti-human IgG (Fc) antibody (Human antibody capture kit, GE Healthcare). Serial 3-fold dilutions of each 7C2 variant were injected at a flow rate of 30 μl/min. Each sample was analyzed with 3-minute association and 10-minute dissociation. After each injection the chip was regenerated using 3 M MgCl₂. Binding response was corrected by subtracting the RU from a flow cell capturing an irrelevant IgG at similar density. A 1:1 Languir model of simultaneous fitting of kₒₙ and koff was used for kinetics analysis.

[2] = biological target: T1, Her2 extracellular domain (Her2 ECD); test: SPR (BIAcore T100), IgG on anti-human IgG (Fc) capture chip, Her2 ECD, 1:1 Langmuir fit
Method: as §1

[3] = biological target: T1, Her2 extracellular domain (Her2 ECD); test: SPR (BIAcore T100), IgG, 1:1 Langmuir fit; remark: listed apart in the source
Method: as §1

B1: 7C2.v2.1 (antibody, V domains shown)
VH: EVQLVQSGAEVKKPGASVKVSCKASGYSFTGYWMNWVRQAPGQGLEWIGMIHPSDSEIRANQKFRDRVTITRDTSTSTAYLELSSLRSEDTAVYYCARGTYDGGFEYWGQGTLVTVSS
VL: DIVMTQSPDSLAVSLGERATINCRASQSVSGSRFTYMHWYQQKPGQPPKLLIKYASILESGVPDRFSGSGSGTDFTLTISSLQAEDVAVYYCQHSWEIPPWTFGQGTKVEIK
notes: Expressed as IgG for SPR; also called hu7C2.v2.1
With B1 as the binder, how does the Kd [1] read?
The Kd was 0.0155 µM.

What about the koff [1] of the same binder?
The koff was 0.0041 s⁻¹.

And the kon [1]?
The kon was 260000 M⁻¹ s⁻¹.

What about the Kd [2] of the same binder?
The Kd was 0.016 µM.

B2: 7C2.v3.1 (antibody, V domains shown)
VH: EVQLVQSGAEVKKPGASVKVSCKASGYSFTGYWMNWVRQAPGQGLEWIGMIHPSDSEIRANQKFRDRVTITRDTSTSTAYLELSSLRSEDTAVYYCARGTYDGGFEYWGQGTLVTVSS
VL: DIVLTQSPDSLAVSLGERATINCRASQSVSGSRFTYMHWYQQKPGQPPKLLIKYASILESGVPDRFSGSGSGTDFTLTISSLQAEDVAVYYCQHSWEIPPWTFGQGTKVEIK
notes: Expressed as IgG
For B2, which Kd [2] is on record?
The Kd was 0.015 µM.

B3: hu7C2.v2.2 (antibody, V domains shown)
VH: EVQLVQSGAEVKKPGASVKVSCKASGYSFTGYWMNWVRQAPGQGLEWIGMIHPSDSEIRANQKFRDRVTITVDTSTSTAYLELSSLRSEDTAVYYCARGTYDGGFEYWGQGTLVTVSS
VL: DIVMTQSPDSLAVSLGERATINCRASQSVSGSRFTYMHWYQQKPGQPPKLLIKYASILESGVPDRFSGSGSGTDFTLTISSLQAEDVAVYYCQHSWEIPPWTFGQGTKVEIK
notes: Expressed as IgG; It is the parent of hu7C2.v2.2.LA, which adds S53L and S55A in HVR-H2
Which Kd [3] does the source give for B3 here?
Its Kd is 0.011 µM.

And the Kd [2]?
The Kd was 0.011 µM.

B4: mu7C2.B9 (antibody, V domains shown)
VH: QVQLQQPGAELVRPGASVKLSCKASGYSFTGYWMNWLKQRPGQGLEWIGMIHPSDSEIRANQKFRDKATLTVDKSSTTAYMQLSSPTSEDSAVYYCARGTYDGGFEYWGQGTTLTVSS
VL: DIVLTQSPASLVVSLGQRATISCRASQSVSGSRFTYMHWYQQKPGQPPKLLIKYASILESGVPARFSGGGSGTDFTLNIHPVEEDDTATYYCQHSWEIPPWTFGGGTKLEIK
notes: Assessed as IgG by SPR on an anti-human IgG (Fc) capture chip; also called murine 7C2.B9; chimeric mu7C2.B9
Which Kd [3] does the source give for B4 here?
The Kd was 0.008 µM.

B5: hu7C2.v2.2.LA (antibody, human IgG1, kappa, V domains shown)
VH: EVQLVQSGAEVKKPGASVKVSCKASGYSFTGYWMNWVRQAPGQGLEWIGMIHPLDAEIRANQKFRDRVTITVDTSTSTAYLELSSLRSEDTAVYYCARGTYDGGFEYWGQGTLVTVSS
VL: DIVMTQSPDSLAVSLGERATINCRASQSVSGSRFTYMHWYQQKPGQPPKLLIKYASILESGVPDRFSGSGSGTDFTLTISSLQAEDVAVYYCQHSWEIPPWTFGQGTKVEIKR
notes: IgG1 kappa; Measured as IgG by SPR; also called humanized 7C2.v2.2.LA; hu7C2.v2.2.LA (S53L, S55A)
With B5 as the binder, how does the Kd [3] read?
The Kd was 0.003 µM.

B6: 7C2.v1.2 (antibody, V domains shown)
VH: EVQLVQSGAEVKKPGASVKVSCKASGYSFTGYWMNWVRQAPGQGLEWIGMIHPSDSEIRANQKFRDRVTITVDTSTSTAYLELSSLRSEDTAVYYCARGTYDGGFEYWGQGTLVTVSS
VL: DIVMTQSPDSLAVSLGERATINCRASQSVSGSRFTYMHWYQQKPGQPPKLLIYYASILESGVPDRFSGSGSGTDFTLTISSLQAEDVAVYYCQHSWEIPPWTFGQGTKVEIK
Which Kd [2] does the source give for B6 here?
Its Kd is 0.013 µM.

B7: 7C2.v1.3 (antibody, V domains shown)
VH: EVQLVQSGAEVKKPGASVKVSCKASGYSFTGYWMNWLRQAPGQGLEWIGMIHPSDSEIRANQKFRDRATLTVDKSTSTAYLELSSLRSEDTAVYYCARGTYDGGFEYWGQGTLVTVSS
VL: DIVMTQSPDSLAVSLGERATINCRASQSVSGSRFTYMHWYQQKPGQPPKLLIYYASILESGVPDRFSGSGSGTDFTLTISSLQAEDVAVYYCQHSWEIPPWTFGQGTKVEIK
How did the Kd [2] turn out when B7 was run?
Its Kd is 0.011 µM.

B8: 7C2.v2.3 (antibody, V domains shown)
VH: EVQLVQSGAEVKKPGASVKVSCKASGYSFTGYWMNWLRQAPGQGLEWIGMIHPSDSEIRANQKFRDRATLTVDKSTSTAYLELSSLRSEDTAVYYCARGTYDGGFEYWGQGTLVTVSS
VL: DIVMTQSPDSLAVSLGERATINCRASQSVSGSRFTYMHWYQQKPGQPPKLLIKYASILESGVPDRFSGSGSGTDFTLTISSLQAEDVAVYYCQHSWEIPPWTFGQGTKVEIK
With B8 as the binder, how does the Kd [2] read?
The Kd was 0.01 µM.

B9: 7C2.v3.3 (antibody, V domains shown)
VH: EVQLVQSGAEVKKPGASVKVSCKASGYSFTGYWMNWLRQAPGQGLEWIGMIHPSDSEIRANQKFRDRATLTVDKSTSTAYLELSSLRSEDTAVYYCARGTYDGGFEYWGQGTLVTVSS
VL: DIVLTQSPDSLAVSLGERATINCRASQSVSGSRFTYMHWYQQKPGQPPKLLIKYASILESGVPDRFSGSGSGTDFTLTISSLQAEDVAVYYCQHSWEIPPWTFGQGTKVEIK
For B9, which Kd [2] is on record?
The Kd was 0.009 µM.
